Laboratory results: patent US8071348B2, “Protein tyrosine phosphatase substrate-trapping double mutant and uses thereof” (Albert Einstein College of Medicine of Yeshiva University, priority 2002, dated 2011)

Key:
[1] = molecular target: epidermal growth factor receptor (EGFR) of COS1 cells, tyrosine-phosphorylated (monkey (COS1 cells)); assay: cell-based or functional assay
[2] = molecular target: epidermal growth factor receptor (EGFR) of COS1 cells, tyrosine-phosphorylated (monkey (COS1 cells)); assay: co-immunoprecipitation from EGF-treated COS1 lysates with anti-HA agarose, anti-pTyr blot

**Q.** Which results are given for “HA-tagged full-length human PTP1B D181A/Q262A (from UniProt P18031 1-435) (enzyme)”?
**A.** protection of the phosphorylated EGF receptors in COS1 cells, against the D181A mutant (anti-pTyr immunoblot of lysates) [1]: 3 fold; fold greater quantity of tyrosine-phosphorylated EGF receptor co-precipitated than with the D181A mutant [2]: > 3 fold
